Molecular target: actin filaments (F-actin) from rabbit skeletal muscle (rabbit, UniProt P68135 1-377)
Assay: co-sedimentation

B1: LEV-11A(E234K), recombinant (natural protein)
chain: MASDAIKKKMQAMKIEKDNALDRADAAEEKVRQITEKLERVEEELRDTQKKMTQTGDDLDKAQEDLSAATSKLEEKEKTVQEAEAEVASLNRRMTLLEEELERAEERLKIATEKLEEATHNVDESERVRKVMENRSLQDEERANTVEAQLKEAQLLAEEADRKYDEVARKLAMVEADLERAEERAEAGENKIVELEEELRVVGNNLKSLEVSEEKALQREDSYEEQIRTVSSRLKKAETRAEFAERSVQKLQKEVDRLEDELVHEKERYKTISEELDSTFQELSGY
fold decrease in affinity against wild-type LEV-11A: ~3 fold

Reference: publication PMC5921574 (Molecular Biology of the Cell, 2018)
